Data as given in the supplement of paper PMC10126150.
± gives the standard deviation of the averaged measurements.

Test system: ATP
Assay: switch fluorescence ratio, 500 uM ATP over buffer (Cy3 cluster intensity, sum of 5 cycles each) (fold (ratio)); higher = stronger signal-on switching upon ATP binding; sequences stand for … in TCGTCGGCAGCGTCAGATGTGTATAAGAGACAGTTTTTTTTTTTTTTTTTTTTTTTTT…TC
Details: aptamer strand: ATP DNA aptamer (quencher-CACCTGGGGGAGTATTGCGGAGGAAGG + anchor), 100 nM annealed; ATP concentration: 500 uM
In short: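 Clusters carrying Cy3-labelled switching strands on a modified Illumina MiSeq flow-cell were annealed to 100 nM quencher-labelled ATP aptamer and imaged in selection buffer. They were imaged again after 15 min with 500 uM ATP at 22 °C, over five buffer/ATP cycles with NaOH stripping and re-annealing in between. For each cluster, the fluorescence ratio is the summed Cy3 intensity of the target cycles divided by that of the buffer cycles, averaged per switch-domain sequence. Clusters outside 100-1000 RFU were left out.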
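Also: ATP exposure 15 min at 22 °C before imaging.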

Sequence	switch fluorescence ratio
GGTGAATGCG	0.9779 ± 0.0048
GGTGACGTGG	1.02 ± 0.012
GGTGACTGCT	0.9543 ± 0.0024
GGTGAGAAAT	1.01 ± 0.04
GGTGAGGCTA	1 ± 0.022
GGTGAGGTTG	0.971 ± 0.02
GGTGATACGC	1.001 ± 0.0035
GGTGATATAG	0.984 ± 0.021
GGTGATCGGC	0.986 ± 0.029
GGTGATGGGC	1.01 ± 0.062
GGTGATGGTG	0.976 ± 0.047
GGTGATGTTG	0.9611 ± 0.0055
GGTGATTATT	1.02 ± 0.029
GGTGCATGGG	1.01 ± 0.034
GGTGCATGGT	1.05 ± 0.011
GGTGCCAAGT	1.004 ± 0.0052
GGTGCCACTT	1.03 ± 0.024
GGTGCCGCGG	1.01 ± 0.023
GGTGCCGTTT	0.998 ± 0.026
GGTGCCTGGG	1 ± 0.0011
GGTGCGCGGA	1.034 ± 0.0064
GGTGCTGGCA	0.956 ± 0.051
GGTGCTTTTG	0.9888 ± 0.0085

Sequence	switch fluorescence ratio
GGTGGAATGT	0.983 ± 0.049
GGTGGAGCTA	1.03 ± 0.015
GGTGGATGGC	1 ± 0.013
GGTGGGAGTG	1.37 ± 0.66
GGTGGGGCGC	1.01 ± 0.035
GGTGGGGTCC	0.987 ± 0.011
GGTGGGGTTT	0.999 ± 0.054
GGTGGGTATT	0.966 ± 0.021
GGTGGGTGCA	0.985 ± 0.036
GGTGGTGGCT	1.04 ± 0.079
GGTGGTGGGT	0.986 ± 0.021
GGTGTAAGAG	0.987 ± 0.031
GGTGTAGCGG	0.982 ± 0.065
GGTGTAGGTG	0.9851 ± 0.0098
GGTGTCATAT	0.984 ± 0.024
GGTGTGAGTG	0.973 ± 0.025
GGTGTGCTGT	0.957 ± 0.031
GGTGTGGAGG	1.021 ± 0.0047
GGTGTGGATC	1.021 ± 0.0029
GGTGTGGCGT	1 ± 0.018
GGTGTGGGGG	1.01 ± 0.04
GGTGTGTCGT	1.02 ± 0.017
GGTGTTAGG	1 ± 0.016

Sequence	switch fluorescence ratio
GGTGTTAGTC	1.02 ± 0.036
GGTGTTCACT	0.995 ± 0.019
GGTGTTGGAC	0.997 ± 0.019
GGTGTTGGG	1.01 ± 0.019
GGTGTTTATC	1 ± 0.014
GGTGTTTCGT	0.9735 ± 0.001
GGTGTTTGGG	1 ± 0.039
GGTGTTTTTT	0.99 ± 0.011
GGTTAAAGCG	1.02 ± 0.013
GGTTAAAGGT	1.02 ± 0.026
GGTTAAGCGG	0.972 ± 0.021
GGTTAAGGCA	1.022 ± 0.0034
GGTTAAGGGT	0.9892 ± 0.0056
GGTTAATTGT	0.993 ± 0.033
GGTTACGAAG	1.01 ± 0.044
GGTTACTGAG	0.98 ± 0.018
GGTTAGAACG	1.02 ± 0.06
GGTTAGGAGT	0.99 ± 0.0081
GGTTAGGCGC	0.993 ± 0.012
GGTTAGGGG	0.99 ± 0.028
GGTTAGTTGG	0.978 ± 0.027
GGTTATAATG	1.02 ± 0.012
GGTTATAGAC	0.994 ± 0.012

Sequence	switch fluorescence ratio
GGTTATCTTT	0.982 ± 0.047
GGTTATGGG	0.993 ± 0.038
GGTTATTTGA	0.974 ± 0.028
GGTTCAGCGG	0.959 ± 0.035
GGTTCAGCGT	0.984 ± 0.015
GGTTCAGGGA	0.977 ± 0.0099
GGTTCAGGTG	3.38 ± 0.34
GGTTCCAAGC	1.06 ± 0.04
GGTTCGACTG	0.951 ± 0.046
GGTTCGGGTG	1.075 ± 0.0041
GGTTCGTATT	0.975 ± 0.038
GGTTCTATTT	1.03 ± 0.016
GGTTCTTCGG	0.9938 ± 0.0066
GGTTCTTTAG	1.015 ± 0.0033
GGTTGAAAAA	0.985 ± 0.053
GGTTGAAAAG	0.979 ± 0.015
GGTTGAAGAG	0.955 ± 0.011
GGTTGACCCC	0.978 ± 0.027
GGTTGACGCA	1.01 ± 0.03
GGTTGACTTG	1.01 ± 0.059
GGTTGAGGGC	1 ± 0.02
GGTTGATACG	0.959 ± 0.026
GGTTGCGGTG	0.94 ± 0.083

Sequence	switch fluorescence ratio
GGTTGGAAAT	0.99 ± 0.06
GGTTGGACAG	0.988 ± 0.011
GGTTGGAGTG	0.963 ± 0.017
GGTTGGAGTT	0.984 ± 0.0049
GGTTGGATGG	0.9995 ± 0.0007
GGTTGGGGAC	0.971 ± 0.022
GGTTGGTCTA	0.979 ± 0.028
GGTTGGTTCT	1.02 ± 0.078
GGTTGTCATG	0.967 ± 0.032
GGTTGTGAGT	0.993 ± 0.02
GGTTGTGGGG	0.998 ± 0.035
GGTTGTTTCG	0.969 ± 0.038
GGTTTAAGGT	1.01 ± 0.02
GGTTTAATTC	1.01 ± 0.012
GGTTTACCGG	0.987 ± 0.039
GGTTTAGGGC	0.992 ± 0.066
GGTTTAGTGG	1 ± 0.031
GGTTTATAAA	0.971 ± 0.051
GGTTTATGGG	0.975 ± 0.037
GGTTTATTTG	1.01 ± 0.016
GGTTTCGATA	0.96836 ± 1.5e-05
GGTTTCGTCC	1.02 ± 0.0023
GGTTTCTACA	1 ± 0.034

Sequence	switch fluorescence ratio
GGTTTCTTAG	0.98 ± 0.018
GGTTTGAAAT	1.04 ± 0.051
GGTTTGAGGA	0.971 ± 0.012
GGTTTGCGTG	0.988 ± 0.0043
GGTTTGCTGA	1.01 ± 0.043
GGTTTGGACG	0.981 ± 0.037
GGTTTGGGCA	1.02 ± 0.013
GGTTTGGTAT	0.99 ± 0.021
GGTTTGGTCA	1 ± 0.0055
GGTTTGGTTA	1 ± 0.027
GGTTTGTGGG	0.968 ± 0.013
GGTTTTAGAT	0.9977 ± 0.0072
GGTTTTATAC	1.04 ± 0.02
GGTTTTCAGT	1.03 ± 0.045
GGTTTTCCAG	0.946 ± 0.063
GGTTTTGCCA	0.995 ± 0.034
GGTTTTTTGT	0.992 ± 0.017
GTAAAAATGG	1.05 ± 0.12
GTAAAAGAAG	0.964 ± 0.02
GTAAAAGGCG	1 ± 0.024
GTAAAAGTTT	0.979 ± 0.01
GTAAAATGTT	1.03 ± 0.035
GTAAAGAGTT	0.992 ± 0.011

Sequence	switch fluorescence ratio
GTAAAGGGGA	1.03 ± 0.044
GTAAGACTAA	0.997 ± 0.011
GTAAGTAAGA	1.03 ± 0.017
GTAAGTGAGC	1.034 ± 0.0026
GTAAGTTCTG	1 ± 0.011
GTAATAGGGC	0.983 ± 0.054
GTAATAGGTC	1.013 ± 0.0088
GTAATAGTAT	1.006 ± 0.0061
GTAATCATTT	0.9667 ± 0.0093
GTAATCGGCA	1.02 ± 0.022
GTAATCTCTG	1.01 ± 0.028
GTAATCTTTA	0.982 ± 0.029
GTAATGATGG	0.994 ± 0.036
GTAATGGGGT	0.966 ± 0.029
GTAATTTAGG	0.996 ± 0.042
GTAATTTTGG	0.983 ± 0.037
GTAATTTTTT	1.02 ± 0.031
GTACACTCAT	1.04 ± 0.031
GTACATATAA	1.03 ± 0.011
